Starred links: 1 amine or outer side, 2 acyl side, 3 side chain; linkers in the order of their positions; H or OH if unused. Non-standard residues stand in square brackets, D forms with d. Groups on a side chain read outwards from the residue. *: point of attachment. C20 diacid = O=C(O)CCCCCCCCCCCCCCCCCCC(=O)*; C18 diacid = O=C(O)CCCCCCCCCCCCCCCCC(=O)*; C16 diacid = O=C(O)CCCCCCCCCCCCCCC(=O)*; γGlu = O=C(O)[C@H](CCC(=O)[*:2])N[*:1]; C14 diacid = O=C(O)CCCCCCCCCCCCC(=O)*; Desaminohistidyl = O=C(CCc1c[nH]cn1)*; Trx = NC[C@H]1CC[C@H](C(=O)O)CC1; AEEA = NCCOCCOCC(=O)O; Aib = CC(C)(N)C(=O)O
Legend:
human GLP-1 receptor = human GLP-1 receptor (human, UniProt P43220 24-463); assay: cell-based or functional assay
[1] = target: T1, human amylin-3 (a) receptor (human, UniProt P30988 25-474; O60896 24-148); assay: cell-based or functional assay
T1 sequence (looked up) 1: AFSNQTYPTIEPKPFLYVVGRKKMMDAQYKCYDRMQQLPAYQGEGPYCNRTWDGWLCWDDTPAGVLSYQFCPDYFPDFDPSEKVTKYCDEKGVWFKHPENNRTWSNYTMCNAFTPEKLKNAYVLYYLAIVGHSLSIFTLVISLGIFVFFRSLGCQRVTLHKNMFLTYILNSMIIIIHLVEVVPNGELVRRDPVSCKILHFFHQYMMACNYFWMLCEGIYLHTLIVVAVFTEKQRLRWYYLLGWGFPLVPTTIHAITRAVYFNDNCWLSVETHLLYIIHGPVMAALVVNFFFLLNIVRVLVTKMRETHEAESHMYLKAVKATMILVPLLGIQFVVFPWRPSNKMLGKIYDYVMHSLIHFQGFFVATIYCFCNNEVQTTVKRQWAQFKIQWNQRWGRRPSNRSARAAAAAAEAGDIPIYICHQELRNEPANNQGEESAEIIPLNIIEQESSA
T1 sequence (looked up) 2: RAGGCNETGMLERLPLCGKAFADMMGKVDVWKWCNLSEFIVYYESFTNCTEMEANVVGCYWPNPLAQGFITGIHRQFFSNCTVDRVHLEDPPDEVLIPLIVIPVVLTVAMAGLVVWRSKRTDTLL

B1: Compound 0509 (peptide)
peptide: H[Aib]EGTFTSDVSSYLEEQAARK([AEEA-AEEA-γGlu-C16 diacid])FIAWLVRGRGGGGGEASELSTAALGRLSAELHK([AEEA-AEEA-γGlu-C16 diacid])LATLPRTETGSGSP-NH2
With B1 the “Human GLP-1R potency [EC50 (pM)]” value (human GLP-1 receptor) was 7.1 pM and the “Human AmyR3 potency [EC50 (pM)]” value [1] was 29.9 pM.

B2: Compound 0440 (peptide)
peptide: H[Aib]EGTFTSDK([AEEA-AEEA-γGlu-Trx-C20 diacid])SSYLEEQAAREFIEWLVRGRGEASELSTAALGRLSAELHELATLPRTETGSGSP-NH2
For B2, the “Human GLP-1R potency [EC50 (pM)]” value (human GLP-1 receptor) was 5.7 pM and the “Human AmyR3 potency [EC50 (pM)]” value [1] was 10.4 pM.

B3: Compound 0484 (peptide)
peptide: H[Aib]EGTFTSDVSK([AEEA-AEEA-γGlu-C14 diacid])YLEEQAVREFIAK([AEEA-AEEA-γGlu-C14 diacid])LVRGRGGGEASELSTAALGRLSAELHELATLPRTETGSGSP-NH2
In the case of B3, the “Human GLP-1R potency [EC50 (pM)]” value (human GLP-1 receptor) is reported as 72.8 pM and the “Human AmyR3 potency [EC50 (pM)]” value [1] is reported as 32.5 pM.

B4: Compound 0474 (peptide)
peptide: HAEGTFTSDVSSYLEEK([AEEA-AEEA-γGlu-C20 diacid])AAREFIEWLVRGRGEASELSTAALGRLSAELHELATLPRTETGSGSP-NH2
For B4, the “Human GLP-1R potency [EC50 (pM)]” value (human GLP-1 receptor) was 2.9 pM and the “Human AmyR3 potency [EC50 (pM)]” value [1] was 21.8 pM.

B5: Compound 0438 (peptide)
peptide: H[Aib]EGTFTSDVSSYLEEQAAREFIEWLVRGRKEASELSTAALGRLSAELHELATLPRTETGSGSP-NH2
modifications: not fully specified (residue 31)
For B5, the “Human GLP-1R potency [EC50 (pM)]” value (human GLP-1 receptor) was 11.8 pM and the “Human AmyR3 potency [EC50 (pM)]” value [1] was 27.5 pM.

B6: Compound 0503 (peptide)
peptide: H[Aib]EGTFTSDVSSYLEEQAAREFIEWLVRGRK([AEEA-AEEA-γGlu-Trx-C20 diacid])GGGGEASELSTAALGRLSAELHELATLPRTETGSGSP-NH2
For B6, the “Human GLP-1R potency [EC50 (pM)]” value (human GLP-1 receptor) was 6.5 pM and the “Human AmyR3 potency [EC50 (pM)]” value [1] was 7.7 pM.

B7: Compound 0439 (peptide)
peptide: H[Aib]EGTFTSDVSSYLEEQAARKFIEWLVRGRGEASELSTAALGRLSAELHELATLPRTETGSGSP-NH2
modifications: not fully specified (residue 21)
For B7, the “Human GLP-1R potency [EC50 (pM)]” value (human GLP-1 receptor) was 8.3 pM and the “Human AmyR3 potency [EC50 (pM)]” value [1] was 10.7 pM.

B8: Compound 0473 (peptide)
peptide: HWEGTFTSDVSSYLEEK([AEEA-AEEA-γGlu-C20 diacid])AAREFIEWLVRGRGEASELSTAALGRLSAELHELATLPRTETGSGSP-NH2
In the case of B8, the “Human GLP-1R potency [EC50 (pM)]” value (human GLP-1 receptor) is reported as 3.1 pM and the “Human AmyR3 potency [EC50 (pM)]” value [1] is reported as 16.2 pM.

B9: Compound 0518 (peptide)
peptide: H[Aib]EGTFTSDVSK([AEEA-AEEA-γGlu-Trx-C20 diacid])YLEEQAAREFIAWLVRGRGGGGGEASELSTAALGRLSAELHELATLPRTETGSGSP-NH2
In the case of B9, the “Human GLP-1R potency [EC50 (pM)]” value (human GLP-1 receptor) is reported as 3.4 pM and the “Human AmyR3 potency [EC50 (pM)]” value [1] is reported as 4.4 pM.

B10: Compound 0502 (peptide)
peptide: H[Aib]EGTFTSDVSSYLEEQAAREFIAWLVRGRK([AEEA-AEEA-γGlu-C20 diacid])GGGGEASELSTAALGRLSAELHELATLPRTETGSGSP-NH2
In the case of B10, the “Human GLP-1R potency [EC50 (pM)]” value (human GLP-1 receptor) is reported as 8.4 pM and the “Human AmyR3 potency [EC50 (pM)]” value [1] is reported as 9 pM.

B11: Compound 0475 (peptide)
peptide: HAEGTFTSDK([AEEA-AEEA-γGlu-C16 diacid])SSYLEEK([AEEA-AEEA-γGlu-C16 diacid])AAREFIEWLVRGRGEASELSTAALGRLSAELHELATLPRTETGSGSP-NH2
In the case of B11, the “Human GLP-1R potency [EC50 (pM)]” value (human GLP-1 receptor) is reported as 70.4 pM and the “Human AmyR3 potency [EC50 (pM)]” value [1] is reported as 66.8 pM.

B12: Compound 0472 (peptide)
peptide: HAEGTFTSDVSSYLEEK([AEEA-AEEA-γGlu-C18 diacid])AAREFIEWLVRGRGEASELSTAALGRLSAELHELATLPRTETGSGSP-NH2
For B12, the “Human GLP-1R potency [EC50 (pM)]” value (human GLP-1 receptor) was 2.8 pM and the “Human AmyR3 potency [EC50 (pM)]” value [1] was 24 pM.

B13: Compound 0051 (peptide)
peptide: [Desaminohistidyl]AEGTFTSDVSSYLEEQAAREFIAWLVRGRK([AEEA-AEEA-γGlu-C18 diacid])EASELSTAALGRLSAELHELATLPRTETGSGSP-NH2
In the case of B13, the “Human GLP-1R potency [EC50 (pM)]” value (human GLP-1 receptor) is reported as 14.3 pM and the “Human AmyR3 potency [EC50 (pM)]” value [1] is reported as 19.5 pM.

B14: Compound 0516 (peptide)
peptide: H[Aib]EGTFTSDVSK([AEEA-AEEA-γGlu-C16 diacid])YLEEQAARKFIAWLVRGRGGGGGEASELSTAALGRLSAELHELATLPRTETGSGSP-NH2
modifications: not fully specified (residue 21)
For B14, the “Human GLP-1R potency [EC50 (pM)]” value (human GLP-1 receptor) was 3.3 pM and the “Human AmyR3 potency [EC50 (pM)]” value [1] was 8.9 pM.

B15: Compound 0512 (peptide)
peptide: H[Aib]EGTFTSDVSSYLEEQAAREFIAWLVRGRK([AEEA-AEEA-γGlu-Trx-C20 diacid])GGEASELSTAALGRLSAELHELATLPRTETGSGSP-NH2
With B15 the “Human GLP-1R potency [EC50 (pM)]” value (human GLP-1 receptor) was 7.6 pM and the “Human AmyR3 potency [EC50 (pM)]” value [1] was 10.8 pM.

B16: Compound 0052 (peptide)
peptide: H[Aib]EGTFTSDVSSYLEGQAAK([AEEA-AEEA-γGlu-C18 diacid])EFIAWLVRGRGGGGGGGGGEASELSTAALGRLSAELHELATLPRTETGSGSP-NH2
In the case of B16, the “Human GLP-1R potency [EC50 (pM)]” value (human GLP-1 receptor) is reported as 17 pM and the “Human AmyR3 potency [EC50 (pM)]” value [1] is reported as 19.4 pM.

B17: Compound 0482 (peptide)
peptide: HAEGTFTSDVSK([AEEA-AEEA-γGlu-C16 diacid])YLEEQAVREFIAK([AEEA-AEEA-γGlu-C16 diacid])LVRGRGGGEASELSTAALGRLSAELHELATLPRTETGSGSP-NH2
For B17, the “Human GLP-1R potency [EC50 (pM)]” value (human GLP-1 receptor) was 36.5 pM and the “Human AmyR3 potency [EC50 (pM)]” value [1] was 31.8 pM.

B18: Compound 0483 (peptide)
peptide: H[Aib]EGTFTSDVSK([AEEA-AEEA-γGlu-C16 diacid])YLEEQAVREFIAK([AEEA-AEEA-γGlu-C16 diacid])LVRGRGGGEASELSTAALGRLSAELHELATLPRTETGSGSP-NH2
For B18, the “Human GLP-1R potency [EC50 (pM)]” value (human GLP-1 receptor) was 33.7 pM and the “Human AmyR3 potency [EC50 (pM)]” value [1] was 36.8 pM.

B19: Compound 0529 (peptide)
peptide: H[Aib]EGTFTSDVSSYLEGQAAREFIAWLVRGRGQEPK([AEEA-AEEA-γGlu-C20 diacid])GQAPEASELSTAALGRLSAELHELATLPRTETGSGSP-NH2
For B19, the “Human GLP-1R potency [EC50 (pM)]” value (human GLP-1 receptor) was 6.4 pM and the “Human AmyR3 potency [EC50 (pM)]” value [1] was 14.1 pM.

B20: Compound 0504 (peptide)
peptide: H[Aib]EGTFTSDVSSYLEEQAAREFIAWLVRGRPK([AEEA-AEEA-γGlu-Trx-C20 diacid])GGGGEASELSTAALGRLSAELHELATLPRTETGSGSP-NH2
In the case of B20, the “Human GLP-1R potency [EC50 (pM)]” value (human GLP-1 receptor) is reported as 8.3 pM and the “Human AmyR3 potency [EC50 (pM)]” value [1] is reported as 6 pM.

B21: Compound 0511 (peptide)
peptide: H[Aib]EGTFTSDVSRYLEEQAAREFIEWLVRGRK([AEEA-AEEA-γGlu-Trx-C20 diacid])GGGGEASELSTAALGRLSAELHELATLPRTETGSGSP-NH2
B21 was tested, and the “Human GLP-1R potency [EC50 (pM)]” value (human GLP-1 receptor) was 8.8 pM and the “Human AmyR3 potency [EC50 (pM)]” value [1] was 8.4 pM.

B22: Compound 0539 (peptide)
peptide: H[Aib]EGTFTSDVSSYLEGQAAREFIAWLVRGRGQEPK([AEEA-AEEA-γGlu-Trx-C20 diacid])GQAPEASELSTAALGRLSAELHELATLPRTETGSGSP-NH2
In the case of B22, the “Human GLP-1R potency [EC50 (pM)]” value (human GLP-1 receptor) is reported as 5 pM and the “Human AmyR3 potency [EC50 (pM)]” value [1] is reported as 12.1 pM.

B23: Compound 0506 (peptide)
peptide: H[Aib]EGTFTSDVSSYLEEQAAREFIAWLVRGRKGGGGEASELSTAALGRLSAELHELATLPRTETGSGSP-NH2
modifications: not fully specified (residue 31)
B23 was tested, and the “Human GLP-1R potency [EC50 (pM)]” value (human GLP-1 receptor) was 5.8 pM and the “Human AmyR3 potency [EC50 (pM)]” value [1] was 9.8 pM.

B24: Compound 0528 (peptide)
peptide: H[Aib]EGTFTSDVSK([AEEA-AEEA-γGlu-C16 diacid])YLEEQAAREFIAWLVRGRK([AEEA-AEEA-γGlu-C16 diacid])GGGGEASELSTAALGRLSAELHELATLPRTETGSGSP-NH2
For B24, the “Human GLP-1R potency [EC50 (pM)]” value (human GLP-1 receptor) was 3.8 pM and the “Human AmyR3 potency [EC50 (pM)]” value [1] was 22 pM.

B25: Compound 0056 (peptide)
peptide: H[Aib]EGTFTSDVSSYLEGQAAK([AEEA-AEEA-γGlu-C18 diacid])EFIAWLVRGRGK([AEEA-AEEA-γGlu-C18 diacid])QEPGQEPEASELSTAALGRLSAELHELATLPRTETGSGSP-NH2
B25 was tested, and the “Human GLP-1R potency [EC50 (pM)]” value (human GLP-1 receptor) was 41.4 pM and the “Human AmyR3 potency [EC50 (pM)]” value [1] was 120 pM.

— patent publication US20260132182A1 (published 2026)
